Assay: yeast display, Sf9 membrane polyspecificity reagent, FACS + sequencing; frameworks hold sequencing errors
How it was run: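 Sorting gates, low and high (top ~1%), were placed on anti-HA fluorescence to track expression and on streptavidin fluorescence to track reagent binding. A clone's polyreactivity label is taken from the gate it came out of. The reagent was 10% biotinylated, detergent-solubilized Sf9 membrane, applied for 1 hour at 4 °C to galactose-induced yeast display cells.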

Sequence: QVQLVESGGGLVQAGGSLRLSCAASGSIFSWSAMGWYRQAPGKVRELVAGITWTGGSTYYADSVKGRFTISRDNAKNTVYLQRNSLKPEDTAVYYCNARRATYRKYTPVPFDRYDYWGQGTQVTVSS
- polyreactivity (PSR sort gate): high polyreactivity

Sequence: QVQLVDSGGGLVQAGGSLRLSCAASGSTLNVYAMGWSRQAPGKERELVATIRRRGTSTYYADSVKGRFTISRDNAKNTVYLQMNSLKPEDTAVYYCAADTRTYRLSSGSGHWEYDYWGQGTQVTVSS
- polyreactivity (PSR sort gate): high polyreactivity

Sequence: QLQLVESGGGLVQAGGSLRLSCADSASIFTCYAMGWDRQAPGKESELVARINVSAGITYYADSVMGRFTISRDNAKNPVYLQMNSLNPEDTAVYYCAATGLRRPKHNYWGQGPQVTVSS
- polyreactivity (PSR sort gate): low polyreactivity

Sequence: QVQLVESGGGLVQAGGSLRLSCAASGSIFKVYAMGWYRQAPGKERELVATISGSGGSTYYADSVKGRFTISRDNAKKTVYLQMNSLKPEDTAVYYCAADAGYAFAVGGGWVEALYDYWGQGTQVTVSS
- polyreactivity (PSR sort gate): low polyreactivity

Sequence: QVQLVESGGGVVQARGSRRLSCAASGRSYANAMGWYRQAPGKERELVAAITKNGGGTYYADSVKGRFTISRDNAKNTVYLQMNSLKPEDTAVYYCAASYSRWYYTAKQQEFDYWGQGTQVTVSS
- polyreactivity (PSR sort gate): high polyreactivity

Sequence: QVQLVESGGGLVQAGGSLRLSCAASGRTFLQYAMGWYRQAPGKERELVATISFSGGSTYADSVKGRFTISRDNAKNTVYLQMNSLKPEDTAVYYCNAGIRYFVVGRSSYDYWGQGTQVTVSS
- polyreactivity (PSR sort gate): low polyreactivity

Sequence: QVQLVESGGGLVQAGGSLRLSCAASGSIFGFYAMGWYRQAPGKERELVASISSSGDSTYYADSVKGRFTISRDNAKNTVYLQMNSLNPEDTAVYYCAAVVYDIYGYEFDYWGQGTQVTVSS
- polyreactivity (PSR sort gate): low polyreactivity

Sequence: QVQLVESGGGLVQAGGSLRLSCAASGSTFLTNTMGWYRQAPGKERELVAIISRSSGTTYYSDSVKGRFTISRDNAKNTVYLQMNSLKPEDTAVYYCAKRYRRASPYSKNVYWGQGTQVTVSS
- polyreactivity (PSR sort gate): high polyreactivity

Sequence: QVQLVESGGGLVQAGGSLRLSCAASGSTFVVNAMGWYRQAPGKERELVAAIRGSAGSTYYADSVKGRFTISRDNAKNTVYLQMNSLKPEDTAVYYCAAYYRRYKSKYDYWGQGTQVTVSS
- polyreactivity (PSR sort gate): high polyreactivity

Sequence: QVQLVESGGGLVQAGGSLRLSCAASGRIITAYAMGWNRQAPGKEREFVAAINVSGGSTYYADSVKGRFTISRDNAKNTVYLQMNSLKPEDTAVYYCNADYYYYDIYWWKMDYWGQGTQVTVSS
- polyreactivity (PSR sort gate): low polyreactivity

Sequence: QVQLVESGGGLVQAGGSLRLSCAASGRIIGYYAMGWYRQAPGKERELVAAISRRGGSTYYADSVKGRFTISRDNAKNTVYLQINSLKPEDTAVYYCNADRVLTRPRYDYWGQGTQVTVSS
- polyreactivity (PSR sort gate): low polyreactivity

Sequence: QVQLVESGGGLVQAGGSLRLSCAASGRTIYSNAMGGYRQAPGKERELVAAITGSSGSTYYADSVKGRFTISRDNAKNTVYLQMNSLKPEDTAVYYCAASCYCSLVRQLRLRGQGTQVTVSS
- polyreactivity (PSR sort gate): low polyreactivity

Sequence: QVQLVESGGGLVQAGGSLRLSCAASGRTSSVYAMGWYRQAPGKESELVAAINRSDGGTYYADSVKGRFTISRDNAKNTVYLQMNSLKPEDTAVYYCARRYYYQYRYDYWGQGTQVTVSS
- polyreactivity (PSR sort gate): high polyreactivity

Sequence: QVQLVESGGGLVQAGGSLRLSCAASGFIFPFYAMGWYRQAPGKERELVAVIRTSSDRTYYADSVKGRFTISRDNAKNTVYLQMNSLKPEDTAVYYCAAETYRLFDYLGQGTQVTVSS
- polyreactivity (PSR sort gate): low polyreactivity

Sequence: QVQLVESGGGLVQAGGSLRLICAASGSTFNGNDRGWYRQAPGKERELVATISDGGRTYYADSVKGRFTISRDNAKITVYLQMNSLKPEDTAVYYCAAPVYVPRAWFYYWGQGTQVTVSS
- polyreactivity (PSR sort gate): low polyreactivity

Sequence: QVQLVESGGGLVQAGGSLRLSCAASGITIPVYMGWYRQPPGKERELVASISTIGGTTYYADSVKGRFTITRDNAKNTVYLQMNRLKPEDSAVYYCAADHPWSWYDYWGQGTQVTVSW
- polyreactivity (PSR sort gate): low polyreactivity

Sequence: QVQLEESGGGLVQAGGSLRLSCAASGSIFVVYAMGWSRQAPGKERELVASIRTGGSTNYADSEKGRFTISRDNAKNNVYLQMNSLKPEDTAVYYCAAASWNSNRHYYVARYYYWGQGTQVTVSS
- polyreactivity (PSR sort gate): high polyreactivity

Sequence: QVQLVESGAGLVQAGGRLRLSCAASGIIFRPYAMGWYRQAPGKERELVAAITGSGVSTYYADSVKGRFTISRDNAKITVYLQMNSLKPEDTAVYYCAKRYNRCDHRYDYWGQGTQVTVSS
- polyreactivity (PSR sort gate): low polyreactivity

Sequence: KVQLVESGGGLVQAGGSLRLSCAASGSTFYYYAMGWYSQAPGKERELVAAITSSTGSTYYADSVKGRFTISRDNAKNTVYLQMNSLKPVDTAVYYCAATDPYAYYWGQGTKVTVSS
- polyreactivity (PSR sort gate): high polyreactivity

Sequence: QVQLVESGGGLVQAGGSLRLSCAASGSTFWPYAMGWYRQAPGKERELVAAINYSSGSTYYADSVKGRFTISRDNAKNTVYLQMNSLKPEDNAVYYCAKGWYAGYPYDYWGQGTQVTVSS
- polyreactivity (PSR sort gate): low polyreactivity

Sequence: QVQLVESGGGLVQAGGSLRLSCAASGSTFILNAMGWYRQAPGKEWELVAAISRSGGNTYYADSVKGRFTISRDIAKNTVYLQMNSLKPEDTAVYYCAATRRSHYYYWGQGTQVTVSS
- polyreactivity (PSR sort gate): high polyreactivity

Sequence: QVQLVESGGGLVQAGGSLRLSCAASGPIFKRNDMGWYRQSHGKERELVAAISGSGGRTYYADSLKGRFTISRDNAKNTVYLQMNSLKPEDTAVYYCNAGGSYYARGMDYWGQGTQVTVSS
- polyreactivity (PSR sort gate): high polyreactivity

Sequence: QVQLVESGGGLDQARGSLRLSCAASGSTFGRYAIGWYRQAHGKERELVAAINSRGGRTYYADSVKGRFTISRDNAKNTVYLQMNSLKPEVTAVYYCAAPTGPKGYYSDRGDSWGQGTQVTLSS
- polyreactivity (PSR sort gate): low polyreactivity

Sequence: QVQLVESGGGLVQAGGSLRLSCAASGSIFTEYAMGWYRKAPGKERELVAVITLRGGSTYYADSVKGRFTISRDNAMNTVYLQMNSLKPEDTAVYYCAAVTLVSFWFDYWGQGTQVTVSS
- polyreactivity (PSR sort gate): low polyreactivity

Sequence: QVQLVESGGGLVQAGGSLRLSCAASGSTFYPNAKGWYRQAPGKDREFVAASSTSAGRTYYADSVKGRFTISRDNAKKTVYLQINSLKPEDTAVYYCNARYWVYYVYEYDSWGQGTQVTVSS
- polyreactivity (PSR sort gate): low polyreactivity

Sequence: QVQLVESGGGLVQAGGSLRLSCDASGRIFRYNSMGWYRQAPGKEREFVAAITWRGGSTYYADSVKGRFTISRDNAKYNVYFQMNSLKPEDTAVYYCATRSPFGAAYEYGYWGQGTQVTVSS
- polyreactivity (PSR sort gate): high polyreactivity

Sequence: QVQLEQSGGGLVQAGGSLRLSCAASGRTFVSNAMGWYRQAPGKERELVADITSGGSTDYADSVKGRFTISRDNANNTVYLQMNSLKPEDTAVYYCATDLWRWYGWFDYWGQGTQVTVSS
- polyreactivity (PSR sort gate): low polyreactivity

Sequence: QVQLVESGGGLVQAGGSLRLSCAASGSIFPWYTMGWYRQAPGKEREFVAAISWSGGSTYYADSVKGRFTISRDNAKNTDYLQMNSLKPEETAVYYCAASRRPWYRAVTWNAGDYWGQGTQVTVSS
- polyreactivity (PSR sort gate): high polyreactivity

Sequence: QVQLVESGVGLVQAGGSLRLSCAASGSISQGNAMGWYRQAPGKERELVAANRWTSGRTYYADSVKGRFTISRDIAKNTVYLQMNSLKPEDTAEYYCAAYYVYYTPTLFDRVYWGQGSQVTVSS
- polyreactivity (PSR sort gate): low polyreactivity

Sequence: QVQLVESGGGLVQAGGSLRLSCAASGSIFPLYGMGWYRQAPGKERELVGAISIGGRTNYADSVKGRFTISRDNAKNTVYLQMNSLKPEDTAVYYCNAVSKFVYRNRILWYDYWGQGTQVTVSS
- polyreactivity (PSR sort gate): high polyreactivity

Sequence: QVQLVESVGGLVQAGGSLRLSCAASVFNLKSNAMGWYRQATGKERELVAAISSSGGSTYYADSVKGRFTISRDNAKNTVYLQMNSLKPEDTAVYYCNVAQYLRARRPVDYWGHGTQVTVSS
- polyreactivity (PSR sort gate): high polyreactivity

Sequence: QVQLVESGGGLVQAGGSLRLSSAASGHHFRTNAMGWYRQAPGKERELVAVINIGGASTYYADSVKGRFTISRDNAKNTVNLQMNSLKPEDTAVYYCAQEFYDGYFPTFDYDYWGQGTQVTVSS
- polyreactivity (PSR sort gate): low polyreactivity

Sequence: QVQLVESGGGLVQAGGSLRLSCAASGRIFLNYDMGWYRQAPGKERELVADISISGSTDYADSVKGRFTISRDNAKNTVYLQMNSLKPEDTAVYYCATSFYVSDYYVPYEMGYWGQGTQVTVSS
- polyreactivity (PSR sort gate): low polyreactivity

Sequence: QVQLVESGGGLVQAGGSLRLSCAASGRIIWGYAMGWYRQAPGKERELVAGITYSGGSTYYADSVKGRFTISRDNAKNTVYLQMNSLKPEDTAVYYCAAAKSYRSGSWYEYWGQGTQVTVSS
- polyreactivity (PSR sort gate): high polyreactivity

Sequence: QVQLVESGGGLVQAGGSLRLSCAASGFIFYYYAMGWYRQAPGKERELVASISSDGSTYYADSVKGRFTISRDNAKNTVYLQMNSLKPEDTAVYYCNADRYYPDDLSDGVGTYDYWGQGTQVTVSS
- polyreactivity (PSR sort gate): low polyreactivity

Sequence: QVQLVESGGGLVQAGGSLRLSCAASGFTFYTYAMGWYRQAPGKERELVADISSGGSTNYADPVKGRFTISRDNAKNTVDLQMNCLKPEDTAVYYCSADYYFLDWYDYWGQGTQVTVSS
- polyreactivity (PSR sort gate): low polyreactivity

Sequence: QVQLVESGGGLVQAGGSLRLSCAASGSTLKLYVMGWYRQAPGKERELVAAISYSGGSTNYADSVKGRFTISRDNAKNTVYLQMNSLKPEDTAVYYCAAAGYKWYYKYYYWGQGTQVTVSS
- polyreactivity (PSR sort gate): high polyreactivity

Sequence: QVQLVESGGGLVQAGGSLRLSCAASGRIFSFYAMGWYRQAPGKERELVATISKRAGSTYYADSVKGRFTISRDNAKNTVYLQMNSLKPEDTEVYYCYAYKRGYLYRYNYWGQGTQVTVSS
- polyreactivity (PSR sort gate): high polyreactivity

Sequence: QVQLVESGGGLVQAGGSLRLSCAASGFIFPRYAMGWYRPAPGTERELVAAISRSGGITRYADSVKGRFTISRDNAKNTVYLQINSLKPEDTAVYYCAAYIQGWVTAEWVRDDYWGQGTQVTVSS
- polyreactivity (PSR sort gate): high polyreactivity

Sequence: QVQLVESGGGLVQAGGSLRLSCAASGSIFYRNVMGWYRQAPGKERELVAAISQRGGSTYYADSVKGRFTISRDNAKNTVYLQMNSLKPEDTAVYYCNAASRGAGTSIWSWYDHWGQGTQVTVSS
- polyreactivity (PSR sort gate): low polyreactivity

Sequence: QVQLVESGGGLVQAGGSLRLSCAASGSIFSKNAMGWYRQAAGKEWEWVAAISRSAGSTYYADSVKGRFTISRDNAKNTVYLQMNSLKPEDTAVYYCAAEGYRWVTAYYDYDEDYWGQGTQVTVSS
- polyreactivity (PSR sort gate): low polyreactivity

Sequence: QVQLVESGGGLVQAGGSLRLSCASSGLIFSIYAMGWYRQAPGKERELVAAIRWSGGSTYYADSVKGRFTISRDNAKNTVYLQMNSLKPEDTADYYCNADITVYVRIYQYNYWGQGTQVTVSS
- polyreactivity (PSR sort gate): low polyreactivity

Sequence: QVQLVEPGGGLVQAGGSLRLSCAASGSTFTLYAMGWYRQAPGKERELVATLTGSAGSTNYADSVKGRFTISRDNAKNTVYLQMNSLKPEDTAVYYCAKRVQQSTWYGYGIGYEYWGQGTQVTVSS
- polyreactivity (PSR sort gate): high polyreactivity

Reference: the nanobody polyreactivity screen of Harvey et al. (2022)
